Laboratory results published in patent US20030185819A1 (Biogen, published 2003).
Where a chain is given by its changes, count along the chain named. Names and notes keep the numbering of the source. Each block holds one binder with its values, some of them ahead of it.

Tests used:
[1] = target: T1, VLA-4 (integrin alpha4 beta1) on the human B cell line Ramos (human, UniProt P13612 34-1032; P05556 21-798); assay: FACS, half-maximal binding to Ramos cells
T1 construct: whole, on cells; also called α4β1; VLA-4-expressing cells
T1 sequence (P13612 34-1032, chain 1 of 2): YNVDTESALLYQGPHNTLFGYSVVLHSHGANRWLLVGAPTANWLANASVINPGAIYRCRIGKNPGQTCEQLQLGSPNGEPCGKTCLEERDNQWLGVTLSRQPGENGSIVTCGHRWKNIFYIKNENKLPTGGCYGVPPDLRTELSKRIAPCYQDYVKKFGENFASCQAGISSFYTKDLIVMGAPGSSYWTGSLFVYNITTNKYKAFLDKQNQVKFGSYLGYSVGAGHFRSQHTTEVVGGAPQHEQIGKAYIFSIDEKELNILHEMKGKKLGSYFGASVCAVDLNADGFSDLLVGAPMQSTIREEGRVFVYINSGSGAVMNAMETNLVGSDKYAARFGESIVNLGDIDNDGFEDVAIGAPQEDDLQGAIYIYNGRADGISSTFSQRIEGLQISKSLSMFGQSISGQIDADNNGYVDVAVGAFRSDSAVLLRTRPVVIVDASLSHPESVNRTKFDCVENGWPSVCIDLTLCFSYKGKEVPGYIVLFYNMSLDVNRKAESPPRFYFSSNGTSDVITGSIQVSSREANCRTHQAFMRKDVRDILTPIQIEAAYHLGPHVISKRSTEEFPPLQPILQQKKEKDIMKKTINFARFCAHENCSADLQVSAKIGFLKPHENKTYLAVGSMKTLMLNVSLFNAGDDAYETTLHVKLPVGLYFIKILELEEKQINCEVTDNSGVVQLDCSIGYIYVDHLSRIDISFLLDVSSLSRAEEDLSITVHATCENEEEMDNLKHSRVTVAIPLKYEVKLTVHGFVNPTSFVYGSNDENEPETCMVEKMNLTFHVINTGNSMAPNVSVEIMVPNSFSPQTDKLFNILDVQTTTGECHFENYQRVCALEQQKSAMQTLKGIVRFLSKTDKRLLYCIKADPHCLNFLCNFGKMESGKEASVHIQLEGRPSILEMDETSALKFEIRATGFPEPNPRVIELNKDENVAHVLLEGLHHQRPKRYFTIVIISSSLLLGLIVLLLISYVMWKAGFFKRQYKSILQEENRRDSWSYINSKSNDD
T1 sequence (P05556 21-798, chain 2 of 2): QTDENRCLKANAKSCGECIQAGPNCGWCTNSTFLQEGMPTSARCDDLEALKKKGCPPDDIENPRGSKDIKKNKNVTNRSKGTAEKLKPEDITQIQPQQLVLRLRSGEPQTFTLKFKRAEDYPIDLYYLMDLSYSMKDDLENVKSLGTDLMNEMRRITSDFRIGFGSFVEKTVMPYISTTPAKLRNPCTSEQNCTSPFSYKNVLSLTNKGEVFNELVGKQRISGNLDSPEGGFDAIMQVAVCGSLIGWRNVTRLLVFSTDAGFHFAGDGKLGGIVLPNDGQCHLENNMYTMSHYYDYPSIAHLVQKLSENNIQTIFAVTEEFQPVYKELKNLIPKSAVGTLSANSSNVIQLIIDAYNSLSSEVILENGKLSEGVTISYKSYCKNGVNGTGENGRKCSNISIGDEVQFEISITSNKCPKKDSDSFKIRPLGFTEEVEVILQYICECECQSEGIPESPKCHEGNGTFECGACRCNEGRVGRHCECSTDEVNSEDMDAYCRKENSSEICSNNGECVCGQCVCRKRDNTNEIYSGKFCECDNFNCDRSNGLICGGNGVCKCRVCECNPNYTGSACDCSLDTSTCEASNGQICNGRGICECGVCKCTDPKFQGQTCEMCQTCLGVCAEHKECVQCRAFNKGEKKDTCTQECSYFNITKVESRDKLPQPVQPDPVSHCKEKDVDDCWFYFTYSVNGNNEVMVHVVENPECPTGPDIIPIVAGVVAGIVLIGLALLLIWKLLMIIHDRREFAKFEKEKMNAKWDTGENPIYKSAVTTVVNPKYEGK
Protocol: (§1) Briefly, 25 μl cells (4×10^6/ml in FACS buffer (PBS 2% FBS, 0.1% NaN₃) on ice are added to 5 μl of 5 μg/ml FITC or phycoerythrin (PE) conjugated antibody in FACS buffer, and incubated in V-bottomed microtiter wells on ice for 30 minutes. To the wells, 125 μl of FACS buffer is added, the plates are centrifuged at 350×g for 5 minutes, and the supernatant is shaken off. To each well is added 125 μl FACS buffer, then the cells are transferred to 12×75 mm Falcon polystyrene tubes and resuspended to a final volume of 250 μl in FACS buffer. The mixture is analyzed on a Becton Dickinson FACStar. The results of the FACS assays as represented by the calculated half-maximal binding […] Using humanized recombinant anti-VLA-4 antibodies made according to the present invention are shown in Table III and the number (n) of experiments performed for each value is indicated for the humanized antibodies. […] Murine HP1/2 binds half-maximally to Ramos cells at 15 ng/ml. The AS/SVMDY humanized antibody binds half-maximally to Ramos cells at 12 ng/ml. Thus, the two assays (i.e., adhesion and FACS assays) show an excellent correlation for the murine antibody and the humanized AS/SVMDY antibody.

[2] = target: T1, VLA-4 (integrin alpha4 beta1) on the …; assay: adhesion assay: inhibition of Ramos cell binding to immobilized rsVCAM1
Protocol: (§2) Recombinant soluble VCAM1 was prepared and purified essentially as described by Lobb et al., 1991a. Soluble VCAM is diluted to 10 μg/ml in 0.05 M NaHCO₃, (15 mM NaHCO₃, 35 mM Na₂CO₃) pH 9.2. Then 50 μl/well is added into a Linbro Titertek polystyrene 96 well plate, flat bottom, Flow Labs catalog #76-231-05. The plate is incubated at 4° C. overnight.
(§3) For antibody blocking studies, 100 μl/well of murine HP1/2 MAb (anti-VLA-4) typically at 10 μg/ml in RPMI, 2% FBS are added to the rsVCAM1 coated plates and incubated for 30 minutes at room temperature prior to cell binding as described above. MAb HP1/2 (anti-VLA-4) or any recombinant humanized anti-VLA-4 antibody prepared as described herein must be preincubated with labelled cells for 30 minutes at room temperature prior to the cell binding. Concentrations of the antibodies preincubated will vary, but generally concentrations were in the range of about 1 μg/ml.
(§4) The potency of recombinant Stage 0, Stage 1, Stage 2 and Stage 3 antibodies having the VK1 (DQL) light chain that had been purified from stably transfected YB2/0 cell lines was measured in the adhesion assay, as shown in Table III.

[3] = target: T1, VLA-4 (integrin alpha4 beta1) on the …; assay: adhesion assay: inhibition of Ramos cell binding to immobilized rsVCAM1; molar value as printed
Protocol: as §2, §3
(§5) In these adhesion assays, murine HP1/2 inhibits Ramos cell binding completely at about 40 ng/ml, and half maximally at about 15 ng/ml ([…]). The results of adhesion assays as represented by the calculated half-maximal binding constants using humanized recombinant anti-VLA-4 antibodies made according to the present invention are shown in Table III. The number-(n) of experiments performed for each value is indicated for the recombinant humanized antibodies.

[4] = target: T1, VLA-4 (integrin alpha4 beta1) on the …; assay: adhesion assay: inhibition of Ramos cell binding to immobilized rsVCAM1 (n = 14)
Protocol: as §2, §3, §5

[5] = target: T1, VLA-4 (integrin alpha4 beta1) on the …; assay: FACS, half-maximal binding to Ramos cells (n = 6)
Protocol: as §1

[6] = target: T1, VLA-4 (integrin alpha4 beta1) on the …; assay: potency assay of Example 7; which assay is not stated
[7] = target: T1, VLA-4 (integrin alpha4 beta1) on the …; assay: adhesion assay: inhibition of Ramos cell binding to immobilized rsVCAM1 (n = 3)
Protocol: as §2, §3, §4

[8] = target: T1, VLA-4 (integrin alpha4 beta1) on the …; assay: FACS, half-maximal binding to Ramos cells (n = 3)
Protocol: as §1

[9] = target: T1, VLA-4 (integrin alpha4 beta1) on the …; assay: adhesion assay: inhibition of Ramos cell binding to immobilized rsVCAM1 (n = 4)
Protocol: as §2, §3, §4

[10] = target: T1, VLA-4 (integrin alpha4 beta1) on the …; assay: adhesion assay: inhibition of Ramos cell binding to immobilized rsVCAM1 (n = 2)
Protocol: as §2, §3

[11] = target: T1, VLA-4 (integrin alpha4 beta1) on the …; assay: FACS, half-maximal binding to Ramos cells (n = 1)
Protocol: as §1

[12] = target: T1, VLA-4 (integrin alpha4 beta1) on the …; assay: combination of adhesion and FACS assays (n = 3)
Protocol: as §2, §3
as §1, with “Thus, the two assays (i.e., adhesion and FACS assays) show an excellent correlation for the murine antibody and the humanized AS/SVMDY antibody.” left out

[13] = target: T1, VLA-4 (integrin alpha4 beta1) on the …; assay: FACS, half-maximal binding to Ramos cells (n = 2)
Protocol: as §1

[14] = target: T1, VLA-4 (integrin alpha4 beta1) on the …; assay: adhesion assay: inhibition of Ramos cell binding to immobilized rsVCAM1 (n = 6)
Protocol: as §2, §3, §4

B2: Stage 2 (Ser mutant) humanized anti-VLA-4 antibody with VK1 (DQL) light chain (antibody, V domains shown)
VH: QVQLQESGPGLVRPSQTLSLTCTVSGFNIKDTYMHWVRQPPGRGLEWIGRIDPASGDTKYDPKFQVRVTMLVDTSSNQFSLRLSSVTAADTAVYYCADGMWVSTGYALDFWGQGTTVTVSS
VL: DIQLTQSPSSLSASVGDRVTITCKASQSVTNDVAWYQQKPGKAPKLLIYYASNRYTGVPSRFSGSGSGTDFTFTISSLQPEDIATYYCQQDYSSPYTFGQGTKVEIKR
notes: Human IgG1 or IgG4 / kappa; also called Sage 2 (Ser mutant); S mutant
IC50 [4]: 0.056 µg/mL
EC50 [5]: 0.047 µg/mL
fold lower potency than murine HP1/2 [6]: ~4 fold

B4: Stage 0-B humanized anti-VLA-4 antibody with VK1 (DQL) light chain (antibody, V domains shown)
VH: B2 VH with N28T, I29F, K30S, S76K
VL: DIQLTQSPSSLSASVGDRVTITCKASQSVTNDVAWYQQKPGKAPKLLIYYASNRYTGVPSRFSGSGSGTDFTFTISSLQPEDIATYYCQQDYSSPYTFGQGTKVEIK
notes: Human IgG1 or IgG4 heavy and human kappa constant regions; also called STAGE O-B; Stage 0 (Humanized heavy chain)
IC50 [2]: > 1 µg/mL

B6: Stage 0-C humanized anti-VLA-4 antibody with VK1 (DQL) light chain (antibody, V domains shown)
VH: B2 VH with N28T, I29F, K30S, S76K, D98R
VL: B4 VL
notes: Generated from Stage 0-A, which is Stage 1 with D94R; Kabat position 94 is linear position 98 of the humanized VH entries (CDR3 = 99-110); Human IgG1 or IgG4 / kappa; also called STAGE O-C; Stage 0 (Humanized heavy chain)
IC50 [2]: > 1 µg/mL

B7: STAW/SVMDY humanized anti-VLA-4 antibody (antibody, V domains shown)
VH: B2 VH with Q78T, F79A, S80W
VL: B2 VL with D1S, Q3V, L4M, S60D, S67Y
notes: Human IgG1 or IgG4 / kappa; also called STAW with VK2 (SVMDY) light chain
IC50 [9]: 0.025 µg/mL
EC50 [8]: 0.035 µg/mL

B9: AS/SVMDY humanized anti-VLA-4 antibody (antibody, V domains shown)
VH: B2 VH with V24A
VL: B2 VL with D1S, Q3V, L4M, S60D, S67Y
notes: Human IgG1 or IgG4 / kappa; also called AS mutant heavy chain combined with the improved light chain (SVMDY); antibody produced by ATCC CRL 11175
IC50 [10]: 0.012 µg/mL
EC50 [13]: 0.012 µg/mL

The next lines start with the values.

EC50 [1]: 0.015 µg/mL
IC50 [2]: 0.015 µg/mL
IC50 [3]: ~10 µM
B1: murine HP1/2 monoclonal antibody (antibody, mouse IgG1, V domains shown)
VH: VKLQQSGAELVKPGASVKLFCTASGFNIKDTYMHWVKQRPQQGLEWIGRIDPASGDTKYDPKFQVKATITADTSSNTAWLQLSSLTSEDTAVYYCADGMWVSTGYALDFWGQGTTVTVSS
VL: SIVMTQTPKFLLVSAGDRVTITCKASQSVTNDVAWYQQKPGQSPKLLIYYASNRYTGVPDRFTGSGYGTDFTFTISTVQAEDLAVYFCQQDYSSPYTFGGGTKLEI
notes: The first eight residues of VH and the first four of VK in the listing are dictated by the PCR primers; also called MAb HP1/2 (anti-VLA-4); HP1/2 MAb

fold lower potency than murine HP1/2 [6]: ~2.5 fold
B3: humanized heavy chain of the Stage 2 construct (the Ser mutant) with murine light chain (antibody, V domains shown)
VH: B2 VH
VL: B1 VL
notes: also called Stage 2 heavy chain / murine light chain

IC50 [7]: 0.03 µg/mL
EC50 [8]: 0.033 µg/mL
B5: Stage 3 STAW humanized anti-VLA-4 antibody with VK1 (DQL) light chain (antibody, V domains shown)
VH: B2 VH with Q78T, F79A, S80W
VL: B2 VL
notes: Human IgG1 or IgG4 / kappa; also called VH-STAW

IC50 [10]: 0.1 µg/mL
EC50 [11]: 0.04 µg/mL
half-maximal binding constant (adhesion and FACS combined) [12]: 80 ng/mL
B8: Stage 3 SSE humanized anti-VLA-4 antibody with VK1 (DQL) light chain (antibody, V domains shown)
VH: B2 VH with A88S, A89E
VL: B2 VL
notes: Human IgG1 or IgG4 / kappa; also called VH-SSE

IC50 [10]: 0.028 µg/mL
EC50 [13]: 0.014 µg/mL
B10: Stage 3 AS humanized anti-VLA-4 antibody with VK1 (DQL) light chain (antibody, V domains shown)
VH: B2 VH with V24A
VL: B2 VL
notes: Human IgG1 or IgG4 / kappa; also called VH-AS

IC50 [10]: 0.05 µg/mL
EC50 [11]: 0.07 µg/mL
half-maximal binding constant (adhesion and FACS combined) [12]: 57 ng/mL
B11: Stage 3 KRS humanized anti-VLA-4 antibody with VK1 (DQL) light chain (antibody, V domains shown)
VH: B2 VH with R38K, P40R
VL: B2 VL
notes: Human IgG1 or IgG4 / kappa; also called VH-KRS

IC50 [14]: 0.228 µg/mL
B12: Stage 1 humanized anti-VLA-4 antibody with VK1 (DQL) light chain (antibody, V domains shown)
VH: B2 VH with S76K
VL: B2 VL
notes: Purified from YB2/0 cells; also called Stage 1 (Humanized heavy chain)

IC50 [10]: 0.085 µg/mL
EC50 [11]: 0.1 µg/mL
half-maximal binding constant (adhesion and FACS combined) [12]: 90 ng/mL
B13: Stage 3 KAITAS humanized anti-VLA-4 antibody with VK1 (DQL) light chain (antibody, V domains shown)
VH: B2 VH with R67K, V68A, M70I, L71T, V72A
VL: B2 VL
notes: Human IgG1 or IgG4 / kappa; also called VH-KAITAS
